According to patent publication US20150166666A1 (Chugai, published 2015):
Positions count from the first letter of the chain named. Where two headings read alike, the source gives them in different places. Blank lines part the entries; values can stand above or below the binder they belong to.

Experiments:
[1] = target: T1, Soluble human FcRn (complex of FcRn and beta2-microglobulin) (human, UniProt P55899 24-290; P16213 21-119); assay: Biacore, binding to human FcRn
T1 construct: Both constructs are stated with their signal regions (Met1-Leu290; Met1-Met119)

[2] = target: T2, Soluble recombinant human IL-6 receptor (SR344) (human, UniProt P08887 20-344, biotinylated (sites not given) only in the membrane-type dissociation assay); assay: SPR, Biacore T100, biotinylated SR344 on streptavidin chip as membrane-type IL-6 receptor, ratio of dissociation rates
T2 construct: range 1-344; also called soluble IL-6 receptor; soluble human IL-6 receptor
T2 sequence (looked up): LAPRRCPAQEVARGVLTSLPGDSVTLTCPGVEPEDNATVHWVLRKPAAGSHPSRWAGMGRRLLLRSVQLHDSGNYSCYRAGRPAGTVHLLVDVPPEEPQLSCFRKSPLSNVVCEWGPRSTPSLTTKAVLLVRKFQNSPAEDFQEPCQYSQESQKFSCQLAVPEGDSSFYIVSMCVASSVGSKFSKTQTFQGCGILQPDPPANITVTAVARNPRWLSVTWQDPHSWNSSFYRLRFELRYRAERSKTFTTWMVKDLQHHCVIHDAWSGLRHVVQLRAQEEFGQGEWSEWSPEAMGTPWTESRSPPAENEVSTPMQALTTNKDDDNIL
Method: (§1) The antigen-antibody reaction with membrane-type IL-6 receptor at pH 5.8 and pH 7.4 was observed using Biacore T100 (GE Healthcare). The binding to membrane-type IL-6 receptor was assessed by evaluating the binding to soluble human IL-6 receptor immobilized onto the sensor chip. SR344 was biotinylated by a method known to those skilled in the art. Based on the affinity between biotin and streptavidin, biotinylated soluble human IL-6 receptor was immobilized onto the sensor chip via streptavidin. All measurements were conducted at 37° C. The mobile phase buffer was 10 mM MES (pH 5.8), 150 mM NaCl, and 0.05% Tween 20. […] The dissociation rate constant (kd (1/s)) at pH 5.8 was calculated using Biacore T100 Evaluation Software (GE Healthcare) by fitting only the dissociation phase at pH 5.8. The sample concentration was 0.25 μg/ml. Binding was carried out in 10 mM MES (pH 7.4), 150 mM NaCl, and 0.05% Tween 20, and dissociation was carried out in 10 mM MES (pH 5.8), 150 mM NaCl, and 0.05% Tween 20. Likewise, the dissociation rate constant (kd (1/s)) at pH 7.4 was calculated using Biacore T100 Evaluation Software (GE Healthcare) by fitting only the dissociation phase at pH 7.4. The sample concentration was 0.5 μg/ml. Binding was carried out in 10 mM MES (pH 7.4), 150 mM NaCl, and 0.05% Tween 20, and dissociation was carried out in 10 mM MES (pH 7.4), 150 mM NaCl, and 0.05% Tween 20.

[3] = target: T2, Soluble recombinant human IL-6 receptor …; assay: as above; remark: listed apart in the source
Method: The rates of dissociation of TOCILIZUMAB, Fv3-M73, and Fv4-M73 from membrane-type IL-6 receptor at pH 7.4 and 5.8 were determined.
as §1

[4] = target: T2, Soluble recombinant human IL-6 receptor …; assay: cell-based or functional assay
[5] = target: T2, Soluble recombinant human IL-6 receptor …; assay: cell-based or functional assay; remark: listed apart in the source
[6] = target: T2, Soluble recombinant human IL-6 receptor …; assay: SPR, Biacore T100, antibody captured on chip, soluble IL-6 receptor as analyte; ratio against TOCILIZUMAB
Method: (§2) Antigen-antibody reaction kinetics was analyzed using Biacore T100 (GE Healthcare). The soluble human IL-6 receptor-antibody interaction was measured by immobilizing appropriate amounts of protein A or protein A/G or anti-IgG (γ-chain specific) F(ab′)2 onto a sensor chip by amine coupling method, binding antibodies of interest onto the chip at pH7.4, and then running soluble IL-6 receptor adjusted to various concentrations at pH7.4 over the chip as an analyte. All measurements were carried out at 37° C. The kinetic parameters, association rate constant kₐ (1/Ms) and dissociation rate constant kd (1/s) were calculated from the sensorgrams obtained by measurement. Then, KD (M) was determined based on the rate constants. The respective parameters were determined using Biacore T100 Evaluation Software (GE Healthcare).

[7] = target: T2, Soluble recombinant human IL-6 receptor …; assay: SPR, Biacore T100, soluble IL-6 receptor as analyte
Method: as §2

[8] = target: T1, Soluble human FcRn (complex of FcRn and …); assay: Biacore, binding to human FcRn; remark: listed apart in the source

B1: TOCILIZUMAB (H chain WT-IgG1; L chain WT-kappa) (antibody)
heavy: not shown
light: not shown
notes: IgG1/kappa; also called TOCILIZUMAB-IgG1; humanized anti-IL-6 receptor IgG1 antibody
Kd [1]: 1620 nM
kd (pH 5.8)/kd (pH 7.4), pH … [2]: 1
kd (pH 5.8)/kd (pH 7.4), pH … [3]: 1
IC50 (read off the curve) [4]: ~0.5 µg/mL

B3: H53/L28 (H chain H53-IgG1; L chain L28-kappa) (antibody, V domains shown)
VH: QVQLQESGPGLVKPSETLSLTCAVSGYSISDDHAWSWVRQPPGEGLEWIGYISYSGITNYNPSLKGRVTISRDTSKNQFSLKLSSVTAADTAAYYCARSLARTTAMDYWGEGTLVTVSS
VL: DIQMTQSPSSLSASVGDSVTITCQASQDISSYLNWYQQKPGKAPELLIYYGSELHSGVPSRFSGSGSGTDFTFTISSLEAEDAATYYCQQGNSLPYTFGQGTKVEIER
notes: IgG1/kappa; also called TOCILIZUMAB with reduced isoelectric point
IC50 (read off the curve) [4]: ~0.1 µg/mL
fold higher affinity than TOCILIZUMAB [7]: ~6 times

B4: Fv3-M73 (H chain VH4-M73; L chain VL1-kappa) (antibody, V domains shown)
VH: QVQLQESGPGLVKPSETLSLTCAVSGHSISHDHAWSWVRQPPGEGLEWIGFISYSGITNYNPTLQGRVTISRDNSKNTLYLQMNSLRAEDTAVYYCARSLARTTAMDYWGEGTLVTVSS
VL: B3 VL with Q27R, Y32H, E53H, H55L, Q89G, S93R
notes: Fully humanized
kd (pH 5.8)/kd (pH 7.4), pH … [3]: 10.9

B7: TOCILIZUMAB-M58 (H chain WT-M58; L chain WT-kappa) (antibody, IgG2)
heavy: QVQLQESGPGLVRPSQTLSLTCTVSGYSITSDHAWSWVRQPPGRGLEWIGYISYSGITTYNPSLKSRVTMLRDTSKNQFSLRLSSVTAADTAVYYCARSLARTTAMDYWGQGSLVTVSSASTKGPSVFPLAPSSKSTSGGTAALGCLVKDYFPEPVTVSWNSGALTSGVHTFPAVLQSSGLYSLSSVVTVPSSNFGTQTYTCNVDHKPSNTKVDKTVERKSCVECPPCPAPPVAGPSVFLFPPKPKDTLMISRTPEVTCVVVDVSQEDPEVQFNWYVDGVEVHNAKTKPREEQFNSTFRVVSVLTVVHQDWLNGKEYKCKVSNKGLPAPIEKTISKTKGQPREPQVYTLPPSQEEMTKNQVSLTCLVKGFYPSDIAVEWESNGQPENNYKTTPPMLDSDGSFFLYSKLTVDKSRWQEGNVFSCSVMHEALHNHYTQKSLSLSP
light: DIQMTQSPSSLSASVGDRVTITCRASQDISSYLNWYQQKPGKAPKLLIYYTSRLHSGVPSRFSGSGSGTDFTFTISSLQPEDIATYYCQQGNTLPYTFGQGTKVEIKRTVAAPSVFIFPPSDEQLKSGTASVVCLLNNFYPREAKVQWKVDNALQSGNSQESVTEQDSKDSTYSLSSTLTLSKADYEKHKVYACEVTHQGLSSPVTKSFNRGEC
notes: M58 constant region: altered IgG2 (SKSC with further changes, Gly446 and Lys447 deleted)
fold superior binding than TOCILIZUMAB-IgG1 [8]: ~1.4 times

The remaining lines, values ahead:

IC50 (read off the curve) [5]: ~0.02 µg/mL
fold affinity relative to TOCILIZUMAB [6]: ~60 times
fold higher affinity than TOCILIZUMAB [7]: ~60 times
B2: RDC-23 (H chain RDC23H-IgG1; L chain RDC-23L-kappa) (antibody, V domains shown)
VH: QVQLQESGPGLVRPSQTLSLTCTVSGYSITSDHAWSWVRQPPGRGLEWIGYISYSGITTYNPSLKSRVTMLRDTSKNQFSLRLSSVTAADTAVYYCARVLARITAMDYWGQGSLVTVSS
VL: DIQMTQSPSSLSASVGDRVTITCRASQDISSYLNWYQQKPGKAPKLLIYYTSRLHSGVPSRFSGSGSGTDFTFTISSLQPEDIATYYCGQGNRLPYTFGQGTKVEIKR

kd (pH 5.8)/kd (pH 7.4), pH … [3]: 10.1
B5: Fv4-M73 (H chain VH3-M73; L chain VL3-kappa) (antibody, V domains shown)
VH: B4 VH with T63S
VL: B3 VL with Q27T, Y32H, E53H, H55L, Q89G, S93R
notes: Fully humanized

kd (pH 5.8)/kd (pH 7.4), pH … [2]: 2.59
B6: H3pI/L73 (H chain H3pI-IgG1; L chain L73-kappa) (antibody, V domains shown)
VH: B3 VH with Y27H, D31H, W35H
VL: B3 VL with D28H, Y32H, E53H, Q89G, S93R
notes: IgG1/kappa

fold superior binding than TOCILIZUMAB-IgG1 [8]: ~3.8 times
B8: TOCILIZUMAB-M73 (H chain WT-M73; L chain WT-kappa) (antibody)
heavy: B7 heavy with N432A
light: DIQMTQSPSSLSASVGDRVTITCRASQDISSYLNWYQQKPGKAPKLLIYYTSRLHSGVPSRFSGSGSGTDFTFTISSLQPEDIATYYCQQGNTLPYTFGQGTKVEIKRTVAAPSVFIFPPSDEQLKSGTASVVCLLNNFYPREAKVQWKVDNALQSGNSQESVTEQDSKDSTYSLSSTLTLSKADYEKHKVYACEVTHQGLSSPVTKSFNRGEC
notes: M73 constant region: M58 with asparagine 434 (EU) changed to alanine
